Key:
mechanistic biomarkers = test: modulation of mechanistic biomarkers (summary); assay type: cell-based
From the text: The effect of modulation of mechanistic biomarkers by recombinant lectin having the amino acid sequence of SEQ ID NO.2 is summarized as below: • increased levels of HGF, which binds to its receptor C-Met, and then acts on MAPK, • activated ATF-2 which is a tumor suppressor and acts via inducing apoptosis, • increased expression of c-kit, which is receptor for SCF, this acts downstream on MAPK, • increased the expression of JNK and inhibits p53, which activates AFT-2 resulting in apoptosis, • stimulated VEGF, VEGF-A and VEGFR2 expression, which activates Ras-Raf pathway, • inhibited expression of EGF, which binds to EGFR and exerts anticancer effect via Ras-Raf pathway or PKC, • stimulated Her-2, which activates Ras-Raf-MEK1-MAPK-ERK activation, • increased ERK and MEK-1 levels, which activated p90RSK and MMPs expression. ERK also acts via stat-3 and NF-KB, • stimulated GMCSF and IL-6 expression, which act via JAK-STAT pathway and activates NF-KB, • activated IL-4R expression, which connects to JAK-STAT pathway. IL-4R also acts via PI3K-Akt arm, • increased IL-8 levels, which acts via PI-3K-Akt-FOX3 arm. Akt also acts via Stat-3-NF-KB arm, where SEQ ID NO. 2 exerted an increase in Stat-3, • increased expression of Leptin, which binds to its receptor Leptin-R and acts on ERK pathway, • increased levels of cytokines (GMCSF, IL-6 and IL-8) may also interact with the immune system in tumor microenvironment to mount anticancer immunoprotective effect, • activated of TNF-α which connects to JNK pathway, • increased levels of endoglin-1 expression, which is a receptor for TGF-β. […] Binding to Tie-2 regulates PI3k pathway, • activation of Kallikrien-3 & Kallikrien-5 that acts as act a tumor suppressor, via induction of apoptosis, • activation of TRAIL & TRAILR2 causes apoptosis primarily in tumor cells, by binding to certain death receptors, • activation of Osteopontin (PON) which binds to receptors αVβ3 and CD44 and acts via Akt pathway, • inhibited Galectin-1 which either acts via Ras-Raf pathway or PI3k-Akt pathway.

[1] = tested on: MDA-MB-231 (Human breast adenocarcinoma); test: MTT cytotoxicity assay; settings: 48h
Experimental: (§1) All the cancer cell lines were procured from National Centre for Cell Science, Pune (India). Cell lines were maintained under conditions as mentioned in Table 23. The cell lines were sub-cultured by trypsinization followed by splitting the cell suspension into fresh flasks and supplementing with fresh culture medium.
(§2) All the cell lines were grown in specified media at 37° C. with 95% Humidity and 5% CO2.
(§3) The cells were trypsinized, counted by Trypan blue method in Neuebauer's Chamber and plated in wells of flat bottom 96-well plate at the density corresponding to 10×10^3 cells/well/200 μL medium.
(§4) Following overnight incubation, the media in the plate was replenished with 180 μL/well and then the cells were treated with 20 μL of each test item at concentrations ranging from 2.5 μg/mL-80 μg/mL in triplicates, so that the total volume in each well is 200 μL.
(§5) The untreated cells served as negative control. The cells were incubated with the test items or positive control for a time period of 48h. Following incubation, the cell cytotoxicity was estimated using MTT assay. Absorbance was measured at 540 nm. The percentage cytotoxicity corresponding to each treatment was calculated using the formula:
(§6) % Cytotoxicity=(1−X/R)*100
(§7) Where X=absorbance of wells corresponding to treated cells R=absorbance of untreated cells (cells maintained in growth medium only)
(§8) IC50 value was calculated using Graph-Pad Prism version 4.01 software.

[2] = tested on: T-47D (Human mammary gland ductal carcinoma); test: MTT cytotoxicity assay; settings: 48h
Experimental: as §1, §2, §3, §4, §5, §6, §7, §8

[3] = tested on: MDA-MB-453 (Human breast metastatic carcinoma); test: MTT cytotoxicity assay; settings: 48h
Experimental: as §1, §2, §3, §4, §5, §6, §7, §8

[4] = tested on: MIA PaCa-2 (Human pancreatic carcinoma); test: MTT cytotoxicity assay; settings: 48h
Experimental: as §1, §2, §3, §4, §5, §6, §7, §8

[5] = tested on: VEGF release in MDA-MB-231 cells; test: VEGF secretion in cancer cells (Human VEGF ELISA); assay type: cell-based; settings: 24 h
Experimental: (§9) The cell lines were maintained in DMEM+10% […] (heat inactivated) at 37° C. with 5% CO2, and 95% humidity. Cells were counted and plated in 6-well plates for 24 h at a density of 0.5×10^6 cells/well. The cells were incubated overnight under growth conditions as described above so as to allow cell recovery and exponential growth. Cells were treated with each test item at different concentrations for 24h in serum free media. Doxorubicin was used as positive control. Secreted levels of VEGF were determined in supernatants after 24 hours using Human VEGF ELISA kit (R&D systems) as per manufacturer's protocol. Change in VEGF levels corresponding to each treatment was calculated using the following formula: […]

[6] = tested on: VEGF release in PANC-1 cells; test: VEGF secretion in cancer cells (Human VEGF ELISA); assay type: cell-based; settings: 24 h
Experimental: as §9

B1: SEQ ID NO. 2: recombinant lectin; variant of the S. rolfsii lectin amino acid sequence (reported as Rec-2 in WO 2010/095143) (protein)
chain: TYKITVRVYQTNPDAFFHPVEKTVWKYANGGTWTITDDQHVLTMGGSGTSGTLRFHADNGESFTATFGVHNYKRWCDIVTNLAADETGMVINQQYYSQKNREEARERQLSNYQVKNAKGRNFQIVYTEAEGNDLHANLIIG
modifications: In vitro synthesis
Mechanistic biomarkers
  ATF-2: activated
  Angiopoietin-1 & Angiopoietin-2: activation
  CD40L: inhibited
  ERK and MEK-1 levels: increased
  Fol-1 expression: increased
  GMCSF and IL-6 expression: stimulated
  Galectin-1: inhibited
  Galectin-3: inhibited
  Her-2: stimulated
  IL-4R expression: activated
  IL-8 levels: increased
  Kallikrien-3 & Kallikrien-5: activation
  Osteopontin (PON): activation
  PDGF-BB: activation
  Stat-3: increase
  TGF-alpha: activation
  TNF-α: activated
  TRAIL & TRAILR2: activation
  VEGF, VEGF-A and VEGFR2 expression: stimulated
  expression of EGF: inhibited
  expression of JNK: increased
  expression of Leptin: increased
  expression of c-kit: increased
  levels of HGF: increased
  levels of endoglin-1 expression: increased
  p53: inhibits
[1]
  IC50: 9.7 µg/mL
[2]
  IC50: >80 µg/mL
[3]
  IC50: >80 µg/mL
[4]
  IC50: >80 µg/mL
[5]; 2.5 μg/mL
  Average absorbance at 450 nM: 0.970
  Percentage decrease in VEGF levels: −25.0%
  VEGF level: 579.3 pg/mL
[5]; 5 μg/mL
  Average absorbance at 450 nM: 0.763
  Percentage decrease in VEGF levels: 4.8%
  VEGF level: 441.0 pg/mL
[5]; 10 μg/mL
  Average absorbance at 450 nM: 1.072
  Percentage decrease in VEGF levels: −39.8%
  VEGF level: 647.5 pg/mL
[5]; 20 μg/mL
  Average absorbance at 450 nM: 1.552
  Percentage decrease in VEGF levels: −108.8%
  VEGF level: 967.3 pg/mL
[5]; 80 μg/mL
  Average absorbance at 450 nM: 2.222
  Percentage decrease in VEGF levels: −205.2%
  VEGF level: 1413.9 pg/mL
[6]; 2.5 μg/mL
  Average absorbance at 450 nM: 1.717
  Percentage decrease in VEGF levels: −5.5%
  VEGF level: 1077.5 pg/mL
[6]; 5 μg/mL
  Average absorbance at 450 nM: 1.821
  Percentage decrease in VEGF levels: −12.3%
  VEGF level: 1146.8 pg/mL
[6]; 10 μg/mL
  Average absorbance at 450 nM: 2.085
  Percentage decrease in VEGF levels: −29.5%
  VEGF level: 1322.6 pg/mL
[6]; 20 μg/mL
  Average absorbance at 450 nM: 2.202
  Percentage decrease in VEGF levels: −37.2%
  VEGF level: 1400.6 pg/mL
[6]; 80 μg/mL
  Average absorbance at 450 nM: 2.006
  Percentage decrease in VEGF levels: −24.4%
  VEGF level: 1269.9 pg/mL
MDA-MB-453
  % Cytotoxicity: 46.6%

From patent US20230348564A1, “ANTI-CANCER PROTEINS” (UNICHEM LABORATORIES LTD, priority 2020, published 2023)
